Target: caga_helpy cagA (UniProt P55980)
Sequence (P55980 whole entry): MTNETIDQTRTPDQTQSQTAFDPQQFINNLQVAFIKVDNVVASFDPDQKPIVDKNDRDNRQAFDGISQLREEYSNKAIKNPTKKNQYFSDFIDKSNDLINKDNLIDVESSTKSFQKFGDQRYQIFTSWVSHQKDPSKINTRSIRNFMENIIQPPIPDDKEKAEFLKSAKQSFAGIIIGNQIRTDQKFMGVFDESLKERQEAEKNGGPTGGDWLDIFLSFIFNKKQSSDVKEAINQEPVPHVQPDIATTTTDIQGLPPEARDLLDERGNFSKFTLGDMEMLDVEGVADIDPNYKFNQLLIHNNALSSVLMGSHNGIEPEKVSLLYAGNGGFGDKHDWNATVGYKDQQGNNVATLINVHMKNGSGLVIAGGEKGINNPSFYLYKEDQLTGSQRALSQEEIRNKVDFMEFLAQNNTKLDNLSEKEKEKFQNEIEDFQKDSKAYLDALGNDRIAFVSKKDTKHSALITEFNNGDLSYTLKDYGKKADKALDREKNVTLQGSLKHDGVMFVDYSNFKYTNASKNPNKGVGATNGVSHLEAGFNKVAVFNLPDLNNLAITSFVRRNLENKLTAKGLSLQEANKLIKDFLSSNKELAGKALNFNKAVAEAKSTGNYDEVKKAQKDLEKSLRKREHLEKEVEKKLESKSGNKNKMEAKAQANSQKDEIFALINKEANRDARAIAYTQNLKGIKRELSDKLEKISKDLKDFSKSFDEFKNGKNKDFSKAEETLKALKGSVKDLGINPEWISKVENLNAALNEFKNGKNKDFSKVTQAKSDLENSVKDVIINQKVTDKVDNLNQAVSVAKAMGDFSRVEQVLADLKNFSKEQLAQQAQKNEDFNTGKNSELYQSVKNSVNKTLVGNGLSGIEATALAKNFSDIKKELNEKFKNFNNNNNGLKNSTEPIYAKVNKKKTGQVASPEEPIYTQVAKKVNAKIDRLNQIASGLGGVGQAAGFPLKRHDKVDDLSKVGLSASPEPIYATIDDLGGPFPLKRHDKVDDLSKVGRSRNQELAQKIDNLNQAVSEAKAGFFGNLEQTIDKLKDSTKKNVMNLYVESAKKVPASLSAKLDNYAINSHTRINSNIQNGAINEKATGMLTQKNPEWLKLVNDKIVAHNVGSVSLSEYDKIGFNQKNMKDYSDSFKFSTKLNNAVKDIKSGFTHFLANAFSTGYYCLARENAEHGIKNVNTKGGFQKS

## Serine/threonine-protein kinase MARK2 (Homo sapiens), Q7KZI7 E136G;F138G;D139G
  effect of a mutation on the interaction: disrupting interaction
